Measurements as given in article doi:10.1101/2023.04.27.538529.

Tests used:
[1] = target: mouse E372K SH2B3 SH2 domain (residues 324-446) (mouse) (UniProt O09039); test: SPR
[2] = target: mouse WT SH2B3 SH2 domain (residues 324-446) (mouse) (UniProt O09039); test: SPR

## JAK2 pY813 peptide
[1]
  IC50: 685 nM
[2]
  IC50: 127 nM
